Laboratory results: the domain aggregation screens of Martell et al. (2025)

Experiment: soluble fraction after stress (log2 fold change); higher = more stays soluble; pooled small domains, quantitative proteomics
Conditions: stress: 75 degC
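Further: 20 min heating vs room temperature control held 20 min.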

Sequence | soluble fraction (log2)
HMSTRYVRTPAGQAEIQARVFKLSRPVRNLLLVINDSRSIDDWLVQVHGITADDVAMLRAEGLIAEVS | -3.06
HMSTSEQVYTTDKVNVRREADTSSEKLGSLEKGTAISRTGTEGEWSVVNYGGVTGYIKTEFLTTEQPQ | 0.63
HMSTSFQVQVSVLDLRIRKEPTVKGQEVGKISKGIHTITETRSADGYTWGKLESGQGWIALEFTTKLD | -3.72
HMSTSLIEFTIDRNNSIANKMIMDANIPEDILVVMIKRNGDVFVPNGSTKILPGDILVLSGNKLKY | -1.69
HMSTTDGIERFLASGAVKGIGRTMAARIVEHFGSRTLTVMESEPERLTEVAGIGRKKAESIAASYAELS | -0.247
HMSTTYAPYLLGETEQEAIRMARNAGLDPQVVRQSDKSEAGTVILQSHDFGFAMKRGAVILITVSSGPLQ | -2.13
HMSTVTEVHYIAFKNGRIVDIKAALTGSAVTATSIKEQPKIENYNYTTSEVRDGILYHTYAPVA | -2.37
HMSVADNALSRQAIESRIALFIQNEDPNHPRSDADIQKELAQAGVVISRRAITKYRNHLHIPSASLRRR | -1.16
HMSVAPISYSQFESYLEQGKVASVAVGQDTIAGRFTAPVDGKSQFVTTIVNPQILDRIDKSGVEITGV | 0.144
HMSVAVKAPLQGTVMKVNVKPGDTVTKGAPVAVIEALKMENDVPAPQDGVVASVDVKSGDSVKTDQVLLTL | 0.563
HMSVDAMDEANERKMAKTFNMIVLGGLLKIRPIVSIESVIKALRKTLPERHHHLIPMNEEAIHIGMDII | 0.0832
HMSVDDEQLLKIIDDIFQQNPQAVTDAKTDSNAIHFLIGQVMKETKGHADHAISKEIIEKKLS | 0.0407
HMSVDEVEALYLKIAEDRLEGKLPDKVSESDLMRRYGLTKAQLGAILQRIVHEGWIERTPGHGWRFLPIL | -0.538
HMSVFMIIVLKQHAPQEFVDMLMSSIKAKGVQIDVSKGARKTILGLVGNTSVIDREQIAGYEYVDKVIRV | -1.94
HMSVFTDIYHQADHETKLMLIHEIKIVGDEKEFRLLKSIIDSTSNDLSKEANDALNAIKIRLALSK | -2.34
HMSVFTPLTRSELETFLAPYELGRLLDFQGIAAGSENTNYFISLEKGEYVLTLVERGPVAEMPFFIELLD | -1.33
HMSVGDLLENLIRETRAQFSAPPESLGVAEKRRFVALLSQKGGFLLKGAVSRAASVLGVSEQTVYRYLKDS | -1.83
HMSVGDLPPEAREIWKLLDGRELSLDLLAEETGRETGALLSTLMMLEMKLLVEHGSDMVYRRIPRR | -2.85
HMSVHSAELKKLKAHLLGIIGRELETQPSTENREEMVRQILHQSYESLRLNLPMQLKEELFNEILAEVL | -0.459
HMSVLEHVSGNVRRLRLQAGLSQEALARAASVSRRMLVGIESGDVNVSLSTLDRIAAALGVLFPDLVQAP | -2.53
HMSVLPAREQVAAILRQAILLRKFKEGQDLTLKDAAELVGSSITPVREAFQILENEGLIELRPNKGAVVL | -0.627
HMSVPEDLYFRELEVEGNKVRISGIASTNNRVSALMRNFDQSEWFRDPSLIKVESKSPGVNEFEIVMTRI | 0.125
HMSVPNVVGRDQVEASSLLESAGFKVSVKQSYSDSVEQGKVISQSPSGSTTVSPGSTVTITVSQ | 0.395
HMSVPRPSAVEVTSLVTGVRDLLPHLGEGYVERVLVEFGFKVDETINALLEGNLPKHLQDLDPSLTKEI | -1.24
HMSVPVDEVLAALTQKLTDLRTQAMAAKDFSAVDALKAALTEAGVEVRMSKTGVELIAGPRVDAKKLGTL | 0.395

Sequence | soluble fraction (log2)
HMSVRPMVEILRVVGSPSPVWVTWARNRAAWLYETGIRPQQRLRMADGTEVLIRLVGEFAHILVVGG | 0.092
HMSVSATQMDAFVRQLRARLSSADGLDDAARLVRQDLEPFLGRFSDETERDFAAAIEQVRGSIRPVEI | -0.139
HMSVSEAELAEKYHADDLEALKSGKLHEFQENLIDRNGKKYTVQTMKDILTLSDGTRLLLGIGLD | 0.131
HMSVTDDQLRVFTNKSGTKIKAKIVEVSDDKVKLIRDDNKKFIVPINSLSEEDQDYLRDWVSNEAVEP | -0.118
HMSVTIDAGGKVYLQESEIADDQLVPRLVAISNNGYDKPIYLRADKTVGYGRVAEVMSLLNAAGFTKLVLV | -0.513
HMSVTRELMLVKVKVTPEQRAGVSAIVDIFRANIIDVGKESMIIELTGNKSKLEAFIDLLDGYEILELART | -1.46
HMSVTVPDVKRMQAEDAKALLSRYRLRSEVIDSVYVDNIPRGAVVEQIPRENSSVKENRIVFLTINSN | -0.569
HMSVTYRYSYVYNGNTYSDGWSVRRAIENNENKRFGPEPSDLDHEAQKQARVTFWAEHGVEYKEQEVV | -1.24
HMSVYIGVDQAKSIAAEHAGLSNSAVTFSKAKLENDDGMTVYEVEFFYQGTEYDYKIDASTGSILEYDLDR | -1.64
HMSWEDSLLKQAREIIDMYPQKRSAVGPLLHLAQSKDGYISDDSISVISKLVGITEVQLKSVSTFYSMYK | -1.74
HMSWEELLEHLEKAAERGEEVRIAGVTLHDEEDFKRALRWLKEWL | -2.7
HMSYIGEEKAKSIAVSNVKGAGTNNVVKVEFDYDDGRAVYEVKVVYNAMEYEFEIDASNGKILSRDAESIY | -1.45
HMSYKFDSLAIILNKLDGKETVNVSSLSDELEVSARTVHRYIGTLQVAGFPIEYDKTKNSYIFSEGYTL | -0.794
HMSYQFKIKNNAAVEVTVSEKNNLLGSTYGDKATVAAGMEKNVTFYTDKPDVVVDTNGNFTITVHDKEIII | 0.0601
HMSYSYIYNYALKVKMDISSTGGKKPYAYYYYDHSYKLAEEILSLSEETESIELQNKYDELKDFYENP | -1.79
HMSYTWHDMYLLAQEYQKEHGNLIIPRNYKGKNGLNLGYWLYKEKLKYRQGKLAPEKIIALEHIGIVWT | -1.25
HMSYYKEMIRLADSIADKAHEGQTDRNGWPYISHPRRVALGARKLVSEMASSTSPDTSLEELKAEVQIVAL | -0.321
HMTAAPEVRVEGLFKGAAVLKIDGQQVMLKKGRSHSSGVTLVDANAHRAIVEIDGQRHELALHMA | -0.0588
HMTADIRFLNSRKFYIYKVEKGETLFSISQKFNIPQEEIIQFNKDINQQGLKAKTKLWVPAYSWL | -3.46
HMTAGTGIAYSEFRSKVQEGQVKDVAIAPDRITGTLSSGQKFSTVPVNDPGLPKMLDDFNVKYSGQA | 0.139
HMTAIWKTITATLTHDIATGKYAPGDRLPTEAQLAARFGVNRHTVRRAISDMNESGLTYSRRGAGVFVAQ | -2.56
HMTALAVGDRVKMDKSATIYGTMRKFAAWVYATKLYVRGIDGNRVVVSTLKSGAITGAVDKKHLTK | -1.61
HMTAMDTQQKKLIIMYHDIHRLRNVEHFTIQRIADHLLLNFRTVKKFLEMTQEEFDKFSENRW | -2.89
HMTANPSTEEIMARVEAIPLPIKRLPPGQIVQAQTVAATVLRSNPGLDLAKAWKLAYATVTGQE | -0.15
HMTANTQVENIRLELQRYMDEHGISQVTVARGIGKTHPVISQFLNNKYPGDVEEVARAIESWLTKQHEKAA | -0.128
